The values that follow are results of earlier work, collected in paper PMC11329504, “Identification of novel small molecule-based strategies of COL7A1 upregulation and readthrough activity for the treatment of recessive dystrophic epidermolysis bullosa” (Scientific Reports, 2024).

The data set has as its target Laminin 5 (Homo sapiens) (UniProt Q16787).

Collagen VII NC1 NC1, sequence (Q02388 17-1253): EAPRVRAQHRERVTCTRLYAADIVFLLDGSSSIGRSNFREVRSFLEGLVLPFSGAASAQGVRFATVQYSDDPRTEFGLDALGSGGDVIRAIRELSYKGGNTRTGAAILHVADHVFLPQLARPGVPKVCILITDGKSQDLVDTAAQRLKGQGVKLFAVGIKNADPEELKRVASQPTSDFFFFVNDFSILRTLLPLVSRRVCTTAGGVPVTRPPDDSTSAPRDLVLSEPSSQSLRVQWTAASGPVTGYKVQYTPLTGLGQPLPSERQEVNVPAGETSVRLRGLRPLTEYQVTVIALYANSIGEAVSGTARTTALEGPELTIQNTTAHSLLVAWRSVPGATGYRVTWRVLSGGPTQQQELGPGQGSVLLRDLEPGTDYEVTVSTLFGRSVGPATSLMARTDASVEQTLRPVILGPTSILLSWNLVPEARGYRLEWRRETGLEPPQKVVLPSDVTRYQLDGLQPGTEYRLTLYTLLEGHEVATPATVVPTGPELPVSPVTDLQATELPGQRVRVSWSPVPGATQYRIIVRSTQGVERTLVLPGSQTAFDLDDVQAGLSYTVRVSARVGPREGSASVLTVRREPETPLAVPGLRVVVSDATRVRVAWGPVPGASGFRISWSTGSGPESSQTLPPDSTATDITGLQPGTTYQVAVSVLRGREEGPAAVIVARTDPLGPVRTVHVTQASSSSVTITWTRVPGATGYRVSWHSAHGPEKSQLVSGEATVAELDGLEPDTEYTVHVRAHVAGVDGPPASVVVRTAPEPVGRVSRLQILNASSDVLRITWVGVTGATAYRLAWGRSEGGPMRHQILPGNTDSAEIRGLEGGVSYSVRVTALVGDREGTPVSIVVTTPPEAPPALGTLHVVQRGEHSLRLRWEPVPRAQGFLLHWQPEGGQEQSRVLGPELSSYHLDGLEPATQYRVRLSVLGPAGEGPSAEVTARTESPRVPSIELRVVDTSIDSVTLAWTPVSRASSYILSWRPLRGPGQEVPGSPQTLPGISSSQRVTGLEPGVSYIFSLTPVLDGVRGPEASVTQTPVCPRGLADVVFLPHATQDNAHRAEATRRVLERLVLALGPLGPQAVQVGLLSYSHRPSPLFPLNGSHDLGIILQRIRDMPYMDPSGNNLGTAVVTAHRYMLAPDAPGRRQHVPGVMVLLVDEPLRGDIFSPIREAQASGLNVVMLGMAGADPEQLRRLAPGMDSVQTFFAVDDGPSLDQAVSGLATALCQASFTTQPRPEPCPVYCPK

One may read the Kd as the equilibrium constant for the complex coming apart. In the case of “Collagen VII NC1 NC1 (from UniProt Q02388)”, the Kd is 0.048 µM.
